Target: human LEPTIN receptor expressed in 293FT cells (human) (UniProt P48357)
Sequence of UniProt P48357 (P48357 22-1165): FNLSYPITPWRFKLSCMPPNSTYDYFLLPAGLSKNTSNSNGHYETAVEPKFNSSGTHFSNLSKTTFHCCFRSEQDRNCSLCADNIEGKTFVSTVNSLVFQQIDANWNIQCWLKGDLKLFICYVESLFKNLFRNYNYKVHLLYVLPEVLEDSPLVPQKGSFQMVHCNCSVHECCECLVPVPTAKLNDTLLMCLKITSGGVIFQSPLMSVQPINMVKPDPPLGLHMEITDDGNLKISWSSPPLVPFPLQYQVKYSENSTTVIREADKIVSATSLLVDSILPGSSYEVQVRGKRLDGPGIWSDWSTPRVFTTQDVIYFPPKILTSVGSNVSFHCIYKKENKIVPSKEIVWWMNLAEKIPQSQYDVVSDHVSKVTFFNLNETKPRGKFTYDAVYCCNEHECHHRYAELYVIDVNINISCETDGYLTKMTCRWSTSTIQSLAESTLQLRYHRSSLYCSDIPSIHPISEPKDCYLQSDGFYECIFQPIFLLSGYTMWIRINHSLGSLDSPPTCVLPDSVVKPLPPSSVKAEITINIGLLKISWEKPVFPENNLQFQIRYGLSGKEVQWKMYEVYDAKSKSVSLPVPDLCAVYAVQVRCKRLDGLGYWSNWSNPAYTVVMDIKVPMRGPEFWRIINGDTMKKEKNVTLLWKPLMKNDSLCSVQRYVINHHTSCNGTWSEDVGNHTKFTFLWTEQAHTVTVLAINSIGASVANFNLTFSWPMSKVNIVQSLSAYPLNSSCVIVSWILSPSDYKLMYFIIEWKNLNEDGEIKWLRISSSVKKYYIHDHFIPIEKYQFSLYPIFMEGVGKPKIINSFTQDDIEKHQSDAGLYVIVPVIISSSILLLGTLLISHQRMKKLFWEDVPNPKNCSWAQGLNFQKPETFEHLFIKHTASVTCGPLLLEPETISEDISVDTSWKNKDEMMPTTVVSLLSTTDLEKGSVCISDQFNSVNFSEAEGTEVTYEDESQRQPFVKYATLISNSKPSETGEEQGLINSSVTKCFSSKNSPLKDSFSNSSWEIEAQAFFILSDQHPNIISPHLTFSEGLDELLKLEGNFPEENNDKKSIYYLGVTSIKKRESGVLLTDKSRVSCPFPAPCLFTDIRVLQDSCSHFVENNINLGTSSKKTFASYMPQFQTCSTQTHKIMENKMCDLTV

Substance: recombinant rat LEPTIN, wild type (from UniProt P50596 22-167) (ligand)
- STAT3 luciferase reporter (pGL6-Stat3, normalised to renilla) in 293FT cells transfected with LEPR, treated with different concentrations of recombinant LEP; EC50 of activation: 3e-09 M

— PMC4932527
